The values that follow come from paper PMC3335848, “Characterization of Multi-Functional Properties and Conformational Analysis of MutS2 from Thermotoga maritima MSB8” (PLoS ONE, 2012).

Series [1] concerns the molecule itself. As to the kind of experiment: AUC; sedimentation velocity, 20°C, 40000 rpm, 24 h, absorbance at 280 nm, C(s) method.
Series [2] concerns the target T1, TmMutS2 (Thermotoga maritima MSB8, UniProt Q9X105 1-757).
T1 sequence: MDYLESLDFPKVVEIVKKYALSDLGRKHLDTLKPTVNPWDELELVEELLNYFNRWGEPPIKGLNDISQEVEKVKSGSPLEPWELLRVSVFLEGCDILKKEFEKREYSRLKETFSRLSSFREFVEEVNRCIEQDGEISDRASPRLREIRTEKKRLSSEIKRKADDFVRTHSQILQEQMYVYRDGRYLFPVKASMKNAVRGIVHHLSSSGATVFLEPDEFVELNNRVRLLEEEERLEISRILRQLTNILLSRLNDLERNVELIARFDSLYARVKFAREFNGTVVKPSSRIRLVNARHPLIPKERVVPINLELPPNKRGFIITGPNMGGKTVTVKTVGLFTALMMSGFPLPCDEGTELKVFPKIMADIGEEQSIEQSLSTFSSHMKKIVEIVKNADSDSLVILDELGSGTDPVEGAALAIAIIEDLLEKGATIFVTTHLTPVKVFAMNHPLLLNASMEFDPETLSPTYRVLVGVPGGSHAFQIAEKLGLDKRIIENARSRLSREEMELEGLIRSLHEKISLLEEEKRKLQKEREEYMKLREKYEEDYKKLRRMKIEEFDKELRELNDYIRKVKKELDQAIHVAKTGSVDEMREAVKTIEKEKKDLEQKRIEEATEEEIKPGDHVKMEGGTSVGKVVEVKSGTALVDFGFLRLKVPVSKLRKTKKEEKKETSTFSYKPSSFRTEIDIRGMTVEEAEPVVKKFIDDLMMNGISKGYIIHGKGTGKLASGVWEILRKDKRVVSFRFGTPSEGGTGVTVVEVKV
Briefly: EMSA; no ATP; 0-2 uM protein; strongest binding among the DNAs; EMSA: 25 mM Hepes-NaOH pH 7.5, 200 mM NaCl, 0.5 mM EDTA, 37 C, 1 h; DNA 1 uM, TmMutS2 0-2 uM, +/- 1 mM ATP. Conditions: protein: recombinant; tags: His-tag removed with TEV protease (pET-28aTEV); chain copies: 2; label: 5'-32P (EMSA); four-way junction of 4 strands. A general note: A gel shift assay detects complexes by their altered migration in electrophoresis.

Series [3] deals with T1, TmMutS2. As to the kind of experiment: EMSA; no ATP; stronger than linear and overhang; EMSA: 25 mM Hepes-NaOH pH 7.5, 200 mM NaCl, 0.5 mM EDTA, 37 C, 1 h; DNA 1 uM, TmMutS2 0-2 uM, +/- 1 mM ATP. Conditions: protein: recombinant; tags: His-tag removed with TEV protease (pET-28aTEV); chain copies: 2; label: 5'-32P; fork; S19[1-37] paired with 3' part of S16, both other arms unpaired.

B1: Thermotoga maritima MutS2 (enzyme, Thermotoga maritima MSB8, UniProt Q9X105 1-757, looked up)
chain: T1 sequence
notes: MutS2 of Thermotoga maritima MSB8, gene amplified from genomic DNA; 89 kDa; residue numbers run to 757; Vector pET-28aTEV; also called TmMutS2; apo-TmMutS2; source: E. coli BL21 (DE3), purified (heat step at 65°C, Ni-NTA, TEV cleavage, Heparin Hitrap HP, Superdex 200 HR)
The stoichiometry N is a count of units in the complex or per binding partner. As for B1, the “stoichiometry N” value in series [1] was 2.

B2: Four-way junction (FWJ, DNA 3) (structured_DNA)
DNA 1: GACGCTGCCGAATCCTACCAGTGCCTTGCTAGGACATCTTTGCCCACCTGCAGGTCACCC
DNA 2: TGGGTGAACCTGCAGGTGGGCAAAGATGTCCTAGCAATGTAATCGTCAAGCTTTATGCCGTT
DNA 3: ATCGATAGTCGGATCCTCTAGACAGCATGTCCTAGCAAGGCACTGGTAGAATTCGGCAGCGT
DNA 4: CAACGGCATAAAGCTTGACGATTACATTGCTAGGACATGCTGTCTAGAGGATCCGACTATCGA
Turning to B2, the binding result in series [2] was “binds”.

B3: Flayed (DNA 4, fork) (structured_DNA)
DNA 1: AACGGCATAAAGCTTGACGATTACATTGCTAGGACATGCTGTCTAGAGGATCCGACTATCGA
DNA 2: B2 DNA 2
B3: in series [3], the binding result is “binds”.
